Experimental data: PMC6443190, “Regulation of anthocyanin accumulation via MYB75/HAT1/TPL-mediated transcriptional repression” (PLoS Genetics, 2019)

B3: MBP-MYB75 (natural protein, Arabidopsis thaliana, UniProt Q9FE25 1-248, looked up)
chain: MEGSSKGLRKGAWTTEEDSLLRQCINKYGEGKWHQVPVRAGLNRCRKSCRLRWLNYLKPSIKRGKLSSDEVDLLLRLHRLLGNRWSLIAGRLPGRTANDVKNYWNTHLSKKHEPCCKIKMKKRDITPIPTTPALKNNVYKPRPRSFTVNNDCNHLNAPPKVDVNPPCLGLNINNVCDNSIIYNKDKKKDQLVNNLIDGDNMWLEKFLEESQEVDILVPEATTTEKGDTLAFDVDQLWSLFDGETVKFD
notes: MYB75, Arabidopsis thaliana, At1g56650; full-length, in pMAL-C2X; pMAL-C2X; also called full-length MYB75

What was measured:
Details in all cases: both partners purified
MBP-MYB75 = target: B3; assay: pull-down; Ni-NTA beads with 5 ug HIS protein incubated with 5 ug MBP protein; 150 mM NaCl, 20 mM Tris, 0.2% Triton X-100, pH 8.0, 4 C, 2 h; anti-MBP blot
MBP-HAT1 = target: T1, MBP-HAT1 (Arabidopsis thaliana, UniProt P46600 1-282); assay: as above
T1 construct: HAT1, Arabidopsis thaliana, At4g17460; full-length, in pMALc-B; pMALc-B; also called full-length HAT1
T1 sequence (looked up): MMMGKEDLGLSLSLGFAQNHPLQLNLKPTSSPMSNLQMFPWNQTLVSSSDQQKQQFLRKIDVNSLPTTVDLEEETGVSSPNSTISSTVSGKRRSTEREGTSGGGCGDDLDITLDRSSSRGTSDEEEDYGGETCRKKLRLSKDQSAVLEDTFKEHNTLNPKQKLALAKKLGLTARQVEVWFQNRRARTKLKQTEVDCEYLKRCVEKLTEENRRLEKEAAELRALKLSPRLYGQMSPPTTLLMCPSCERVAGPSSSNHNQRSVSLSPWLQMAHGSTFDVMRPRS

HIS-HAT1 [1] = target: T2, HIS-HAT1 (Arabidopsis thaliana, UniProt P46600 1-282); assay: pull-down; competitive HIS pull-down: 5 ug MBP-TT8 or MBP-EGL3 mixed with 5, 10 or 20 ug HIS-HAT1, on Ni-NTA beads with 5 ug HIS-MYB75; 150 mM NaCl, 20 mM Tris, 0.2% Triton X-100, pH 8.0, 4 C, 2 h; anti-MBP blot
T2 construct: HAT1, Arabidopsis thaliana, At4g17460; full-length, in pET28a; pET28a; also called full-length HAT1
T2 sequence (looked up): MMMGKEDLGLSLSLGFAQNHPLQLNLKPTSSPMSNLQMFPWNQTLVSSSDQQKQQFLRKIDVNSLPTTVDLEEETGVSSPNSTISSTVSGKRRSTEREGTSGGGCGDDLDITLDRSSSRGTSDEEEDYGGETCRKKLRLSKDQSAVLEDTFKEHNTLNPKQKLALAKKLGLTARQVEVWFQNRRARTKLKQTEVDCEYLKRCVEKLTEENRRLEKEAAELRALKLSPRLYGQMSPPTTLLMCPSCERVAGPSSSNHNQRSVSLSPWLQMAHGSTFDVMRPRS

MBP-EGL3 = target: T3, MBP-EGL3 (Arabidopsis thaliana, UniProt Q9CAD0 1-596); assay: as above
T3 construct: EGL3, Arabidopsis thaliana, At1g63650; pMAL-C2X
T3 sequence (looked up): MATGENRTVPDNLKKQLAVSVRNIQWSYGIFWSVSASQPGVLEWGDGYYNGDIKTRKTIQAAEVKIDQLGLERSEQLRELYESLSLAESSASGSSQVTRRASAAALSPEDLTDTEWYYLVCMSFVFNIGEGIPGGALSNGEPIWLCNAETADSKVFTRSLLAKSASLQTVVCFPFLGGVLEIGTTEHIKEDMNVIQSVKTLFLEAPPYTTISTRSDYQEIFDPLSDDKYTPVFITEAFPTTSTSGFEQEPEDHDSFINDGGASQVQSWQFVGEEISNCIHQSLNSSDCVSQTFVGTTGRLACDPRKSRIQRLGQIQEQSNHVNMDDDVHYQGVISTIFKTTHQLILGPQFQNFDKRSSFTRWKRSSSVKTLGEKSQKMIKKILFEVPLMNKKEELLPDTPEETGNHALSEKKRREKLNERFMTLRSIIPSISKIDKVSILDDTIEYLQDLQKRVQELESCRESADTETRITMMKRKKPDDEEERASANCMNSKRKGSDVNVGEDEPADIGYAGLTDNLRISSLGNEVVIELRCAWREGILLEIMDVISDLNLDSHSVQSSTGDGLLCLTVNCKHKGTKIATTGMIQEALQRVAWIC

MBP-TT8 = target: T4, MBP-TT8 (Arabidopsis thaliana, UniProt Q9FT81 1-518); assay: as above
T4 construct: TT8, Arabidopsis thaliana, At4g09820; pMAL-C2X
T4 sequence (looked up): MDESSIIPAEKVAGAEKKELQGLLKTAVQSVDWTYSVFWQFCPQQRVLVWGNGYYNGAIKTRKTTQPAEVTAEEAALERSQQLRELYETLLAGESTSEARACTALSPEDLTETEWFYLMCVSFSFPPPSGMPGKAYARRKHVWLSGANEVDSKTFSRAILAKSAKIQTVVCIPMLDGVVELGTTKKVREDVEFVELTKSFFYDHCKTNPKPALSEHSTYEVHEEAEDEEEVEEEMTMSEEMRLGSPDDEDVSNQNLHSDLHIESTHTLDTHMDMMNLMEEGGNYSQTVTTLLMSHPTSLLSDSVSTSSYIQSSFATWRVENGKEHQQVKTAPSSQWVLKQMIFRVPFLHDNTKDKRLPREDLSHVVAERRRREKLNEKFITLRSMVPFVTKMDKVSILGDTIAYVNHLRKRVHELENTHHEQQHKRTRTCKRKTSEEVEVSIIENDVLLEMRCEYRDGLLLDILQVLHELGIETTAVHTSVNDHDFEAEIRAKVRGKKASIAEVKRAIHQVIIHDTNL

HIS-HAT1 [2] = target: T2, HIS-HAT1; assay: pull-down; Ni-NTA beads with 5 ug HIS protein incubated with 5 ug MBP protein; 150 mM NaCl, 20 mM Tris, 0.2% Triton X-100, pH 8.0, 4 C, 2 h; anti-MBP blot

B1: HAT1 C-terminal fragment (pull-down fragment) (domain or fragment, Arabidopsis thaliana, UniProt P46600 234-282, looked up)
chain: SPPTTLLMCPSCERVAGPSSSNHNQRSVSLSPWLQMAHGSTFDVMRPRS
notes: HAT1, Arabidopsis thaliana, At4g17460; also called C-terminus of HAT1; not shown: 6xHis (inferred from the set-up of the methods)
B1: binds (MBP-MYB75).

B2: HIS-MYB75 (natural protein, Arabidopsis thaliana, UniProt Q9FE25 1-248, looked up)
chain: MEGSSKGLRKGAWTTEEDSLLRQCINKYGEGKWHQVPVRAGLNRCRKSCRLRWLNYLKPSIKRGKLSSDEVDLLLRLHRLLGNRWSLIAGRLPGRTANDVKNYWNTHLSKKHEPCCKIKMKKRDITPIPTTPALKNNVYKPRPRSFTVNNDCNHLNAPPKVDVNPPCLGLNINNVCDNSIIYNKDKKKDQLVNNLIDGDNMWLEKFLEESQEVDILVPEATTTEKGDTLAFDVDQLWSLFDGETVKFD
notes: MYB75, Arabidopsis thaliana, At1g56650; full-length, in pET28a; pET28a; also called full-length MYB75
B2: binds (MBP-HAT1); binds (HIS-HAT1 [1]); binds (MBP-EGL3). B2: binds (MBP-TT8).

B3: binds (HIS-HAT1 [2]).
